For experiment [1], the target named is integrin αvβ3 (Homo sapiens, UniProt P05106+P06756). Particulars: cited from earlier work.
The subject of experiment [2] is retinal vasculogenesis. Put plainly: newborn mouse model of retinal angiogenesis. It counts as in vivo. The protocol:
For the model, newborn mice were injected subcutaneously twice daily for four days starting from day 0 with the cyclic peptide RGDfV (SEQ ID NO 4) (also referred to as peptide 203) or the control peptide RADfV (SEQ ID NO 5). On postnatal day five, globes were removed and fixed in 4.0% paraformaldehyde (PFA) at room temperature.
To quantitate mouse retinal angiogenesis, the distance from the optic nerve head to the most distal point of a single vessel selected in each of six equal sectors around a twelve hour clock was measured. The mean distance was calculated and averaged with similar data obtained from an entire litter. To measure the total volume of retinal blood vessels, the entire specimen was scanned in 2.0 μm optical sections and stored digitally. The “seed” function in Bio-Rad's Lasersharp software was then used to threshold and count cubic pixels in each section. A macro was written to sum the volume of all sections and determine the value for all vascular structures.

Experiment [3] deals with integrin αIIbβ3 (Homo sapiens, UniProt P05106+P08514). Particulars: cited from earlier work.
Experiment [4] concerns the target integrin α5β1 (Homo sapiens, UniProt P05556+P08648). To be noted: cited from earlier work.
Experiment [5] concerns angiogenesis induced by PMA. Put plainly: chick CAM assay, PMA-induced angiogenesis. Particulars: PMA 20 ng/ml; antibodies 75 μg per embryo, calphostin C 100 nM. Type of experiment: in vivo. As to the method: (§1) The above growth factors (cytokines), including bFGF and VEGF, were separately applied at a concentration of 1.0 μg/ml to the 10 day old CAM model as previously described. PMA was used at a concentration of 20 ng/ml.
(§2) After 24 hours after growth factor treatment, the antibodies, LM609 and P1F6, or the protein kinase C (PKC) inhibitor, calphostin C, were separately provided to the CAM model, either by a single intravascular dose as described above or by topical administration as described below in the next example. For intravascular injections over the next 3 day consecutive period, the antibodies were used at a concentration of 75 μg per embryo and the calphostin C was at a dosage of 100 nM.
(§3) On day 13, filter discs and associated CAM tissue were dissected and analyzed for angiogenesis with a stereo microscope. Angiogenesis was scored in a double blind manner by analyzing the number and extent of branching of the blood vessels within the area of the discs. The scores ranged from low (1) to high (4). The angiogenesis index was determined by subtracting a background score of 1 from all data. Experiments were repeated 2–4 times with 5–6 embryos per condition.

The test system of experiment [6] is TNF-α mediated angiogenesis. Put plainly: chick CAM assay, TNF-α-induced angiogenesis. Type of experiment: in vivo. Particulars: TNF-α 1.0 μg/ml; antibodies 75 μg per embryo, calphostin C 100 nM. The protocol: as §1, §2, §3
In experiment [7] the test system is angiogenesis induced by TGF-α. Put plainly: chick CAM assay, TGF-α-induced angiogenesis. Type of experiment: in vivo. Particulars: TGF-α 1.0 μg/ml; antibodies 75 μg per embryo, calphostin C 100 nM. As to the method:
as §1, §2, §3

The subject of experiment [8] is CS-1 melanoma tumors. The experiment in a line: CS-1 melanoma tumor growth on chick embryo CAM, intravenous mAbs. Type of experiment: in vivo. To be noted: 100 to 300 μg mAb once intravenously; 7 days. As to the method:
Angiogenesis is induced in the CAM assay system by direct apposition of a tumor fragment on the CAM. Preparation of the chick embryo CAM is identical to the procedure described above. Instead of a filter paper disk, a 50 milligram (mg) to 55 mg in weight fragment of one αvβ5-negative tumor resulting from growth of cell line suspensions described below, is placed on the CAM in an area originally devoid of blood vessels.
In one embodiment, hamster melanoma cells, CS-1, obtained from Dr. Caroline Damsky from University of California at San Francisco, were used in the CAM assay as described above for formation of melanoma tumors. Following the transfer of approximately a 50 mg CS-1 tumor fragment on a new 10 day chick embryo CAM, separate preparations received an intravenous injections of either 100 μg or 300 μg of P1F6 antibody, LM609 antibody or control CSAT (anti-β1) antibody. An additional control included a preparation that received no treatment. The results are discussed below in Example 6D.
Tumor-induced blood vessels prepared above were also treated with mAbs applied by intravenous injection. […] After this time period, the tumors were resected and analyzed by their weight to determine the effect of antibody exposure on tumor growth or suppression.

[ ]: non-standard residue; d: D form.

Consider two molecules from patent US7053041B1, “Methods and compositions useful for inhibition of αvβ5mediated angiogenesis” (The Scripps Research Institute, priority 1996, dated 2006).

integrin αvβ3, sequence (P06756 31-889 limits assumed): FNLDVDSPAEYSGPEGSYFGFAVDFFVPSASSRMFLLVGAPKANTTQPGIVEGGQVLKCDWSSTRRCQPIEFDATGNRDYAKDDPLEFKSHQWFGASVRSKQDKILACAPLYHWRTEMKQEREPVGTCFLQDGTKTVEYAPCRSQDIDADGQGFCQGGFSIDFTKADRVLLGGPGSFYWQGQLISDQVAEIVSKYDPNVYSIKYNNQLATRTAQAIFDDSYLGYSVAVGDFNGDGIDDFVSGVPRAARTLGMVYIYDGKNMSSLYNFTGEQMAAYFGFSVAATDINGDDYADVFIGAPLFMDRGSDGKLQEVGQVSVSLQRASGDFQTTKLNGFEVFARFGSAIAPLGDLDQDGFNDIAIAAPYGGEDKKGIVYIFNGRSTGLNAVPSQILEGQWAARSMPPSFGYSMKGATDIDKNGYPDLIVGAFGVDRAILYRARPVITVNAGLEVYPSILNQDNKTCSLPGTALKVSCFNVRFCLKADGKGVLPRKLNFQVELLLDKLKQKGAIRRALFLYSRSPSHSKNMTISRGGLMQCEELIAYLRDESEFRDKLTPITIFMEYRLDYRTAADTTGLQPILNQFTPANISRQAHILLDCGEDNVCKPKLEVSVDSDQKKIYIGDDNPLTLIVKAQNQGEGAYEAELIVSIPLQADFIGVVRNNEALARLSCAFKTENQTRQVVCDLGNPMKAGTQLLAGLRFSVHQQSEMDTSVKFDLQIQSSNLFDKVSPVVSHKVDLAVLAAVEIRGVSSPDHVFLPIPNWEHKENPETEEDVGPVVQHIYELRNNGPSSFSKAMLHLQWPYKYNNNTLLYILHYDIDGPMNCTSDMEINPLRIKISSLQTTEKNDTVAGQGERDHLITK
integrin αvβ3, sequence (P06756 891-1048 partner limits assumed): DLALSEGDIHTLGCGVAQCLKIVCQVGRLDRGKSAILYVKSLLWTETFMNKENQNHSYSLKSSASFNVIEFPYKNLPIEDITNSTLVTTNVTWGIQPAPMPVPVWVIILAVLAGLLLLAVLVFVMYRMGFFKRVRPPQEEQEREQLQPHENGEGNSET
integrin αvβ3, sequence (P05106 27-788): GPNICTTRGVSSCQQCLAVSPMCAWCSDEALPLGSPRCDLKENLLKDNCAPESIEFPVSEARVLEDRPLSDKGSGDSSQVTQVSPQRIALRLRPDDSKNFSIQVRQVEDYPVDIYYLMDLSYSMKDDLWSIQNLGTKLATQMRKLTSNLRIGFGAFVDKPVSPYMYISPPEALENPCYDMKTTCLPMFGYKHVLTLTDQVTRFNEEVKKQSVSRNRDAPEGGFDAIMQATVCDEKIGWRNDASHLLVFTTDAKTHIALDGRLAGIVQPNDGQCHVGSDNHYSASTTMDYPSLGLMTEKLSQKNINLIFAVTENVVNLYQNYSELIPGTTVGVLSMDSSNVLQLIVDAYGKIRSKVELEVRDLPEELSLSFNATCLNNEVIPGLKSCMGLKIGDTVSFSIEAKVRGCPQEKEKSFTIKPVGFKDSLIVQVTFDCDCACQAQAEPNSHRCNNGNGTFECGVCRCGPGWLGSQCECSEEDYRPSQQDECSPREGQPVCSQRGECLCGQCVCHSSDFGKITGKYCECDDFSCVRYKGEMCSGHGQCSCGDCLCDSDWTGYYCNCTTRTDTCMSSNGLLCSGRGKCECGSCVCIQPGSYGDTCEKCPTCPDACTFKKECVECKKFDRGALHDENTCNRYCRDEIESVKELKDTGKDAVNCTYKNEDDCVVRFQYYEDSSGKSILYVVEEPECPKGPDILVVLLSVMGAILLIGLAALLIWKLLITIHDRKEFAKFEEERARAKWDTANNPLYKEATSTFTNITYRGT
integrin α5β1, sequence (P08648 42-894 limits assumed): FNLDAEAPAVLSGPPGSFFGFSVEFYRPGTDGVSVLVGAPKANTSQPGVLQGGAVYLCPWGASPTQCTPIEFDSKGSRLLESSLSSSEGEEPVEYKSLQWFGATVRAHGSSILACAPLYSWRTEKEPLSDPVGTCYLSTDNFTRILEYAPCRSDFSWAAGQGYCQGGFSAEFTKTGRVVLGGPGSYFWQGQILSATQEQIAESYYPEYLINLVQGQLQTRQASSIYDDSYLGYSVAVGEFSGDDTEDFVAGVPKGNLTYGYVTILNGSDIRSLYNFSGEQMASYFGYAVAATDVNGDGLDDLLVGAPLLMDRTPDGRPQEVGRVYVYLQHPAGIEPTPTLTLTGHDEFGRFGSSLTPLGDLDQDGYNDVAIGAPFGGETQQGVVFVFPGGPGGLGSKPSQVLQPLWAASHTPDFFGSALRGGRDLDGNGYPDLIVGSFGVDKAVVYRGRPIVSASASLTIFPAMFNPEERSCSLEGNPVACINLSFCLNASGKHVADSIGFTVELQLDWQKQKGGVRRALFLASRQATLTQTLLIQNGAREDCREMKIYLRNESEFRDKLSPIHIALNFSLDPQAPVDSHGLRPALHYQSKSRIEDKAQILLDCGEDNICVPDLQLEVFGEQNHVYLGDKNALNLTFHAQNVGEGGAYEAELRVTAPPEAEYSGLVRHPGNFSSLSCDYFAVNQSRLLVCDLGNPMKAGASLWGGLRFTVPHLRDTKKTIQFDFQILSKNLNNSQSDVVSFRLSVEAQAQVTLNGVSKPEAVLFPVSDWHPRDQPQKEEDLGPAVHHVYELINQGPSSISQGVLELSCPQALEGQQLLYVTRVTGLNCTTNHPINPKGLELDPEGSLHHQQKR
integrin α5β1, sequence (P08648 895-1049 partner limits assumed): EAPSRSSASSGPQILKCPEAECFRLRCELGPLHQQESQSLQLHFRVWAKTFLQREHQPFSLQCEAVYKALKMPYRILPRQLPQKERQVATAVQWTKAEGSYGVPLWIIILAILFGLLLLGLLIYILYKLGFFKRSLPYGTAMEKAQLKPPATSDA
integrin α5β1, sequence (P05556 21-798): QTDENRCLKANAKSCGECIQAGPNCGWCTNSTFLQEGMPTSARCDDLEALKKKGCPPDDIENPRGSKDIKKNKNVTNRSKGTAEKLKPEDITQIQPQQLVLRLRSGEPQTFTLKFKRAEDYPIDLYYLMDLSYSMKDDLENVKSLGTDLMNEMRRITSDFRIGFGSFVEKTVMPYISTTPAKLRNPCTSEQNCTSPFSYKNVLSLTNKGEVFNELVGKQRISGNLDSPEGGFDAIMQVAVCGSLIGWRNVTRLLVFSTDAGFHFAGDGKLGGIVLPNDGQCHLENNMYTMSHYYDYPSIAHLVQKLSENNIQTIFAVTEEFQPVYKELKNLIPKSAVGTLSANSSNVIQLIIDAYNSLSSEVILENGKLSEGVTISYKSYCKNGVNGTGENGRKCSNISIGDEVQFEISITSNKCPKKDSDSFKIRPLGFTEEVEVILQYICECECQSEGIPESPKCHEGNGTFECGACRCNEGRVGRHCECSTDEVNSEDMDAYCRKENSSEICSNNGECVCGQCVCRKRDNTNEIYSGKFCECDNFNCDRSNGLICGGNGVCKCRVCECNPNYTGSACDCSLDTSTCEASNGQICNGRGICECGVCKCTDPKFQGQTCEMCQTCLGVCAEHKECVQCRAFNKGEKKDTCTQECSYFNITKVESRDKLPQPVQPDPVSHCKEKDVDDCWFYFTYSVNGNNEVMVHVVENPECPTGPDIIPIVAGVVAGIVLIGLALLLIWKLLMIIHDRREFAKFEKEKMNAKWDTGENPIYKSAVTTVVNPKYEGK

As for “cyclo(Arg-Ala-Asp-D-Phe-Val) (cyclo(RAD[dF]V); SMILES CC(C)[C@@H]1NC(=O)[C@@H](Cc2ccccc2)NC(=O)[C@H](CC(=O)O)NC(=O)[C@H](C)NC(=O)[C@H](CCCNC(=N)N)NC1=O) [peptide 69601, reference compound]”, the “inhibition of binding of fibrinogen to integrin αvβ3” value in experiment [1] is listed as “inhibiting binding”. For the same molecule, the “mean volume of retinal vessels” value in experiment [2] (postnatal day five) is listed as 15.7×10^6 μm^3. Besides, the “difference in vessel growth between untreated five-day old mice and same aged treated mice” value in experiment [2] (two dimensions) is given as “no statistical difference”. For the same molecule, the “inhibition of binding of fibrinogen to integrin αIIbβ3” value in experiment [3] is on record as “not inhibit binding”. Further, the “inhibition of binding of fibrinogen to integrin α5β1” value in experiment [4] is listed as “not inhibit binding”.

B1: LM609: mouse monoclonal antibody, anti-αvβ3 (antibody, V domains shown)
VH: EVQLEESGGGLVKPGGSLKLSCAASGFAFSSYDMSWVRQIPEKRLEWVAKVSSGGGSTYYLDTVQGRFTISRDNAKNTLYLQMSSLNSEDTAMYYCARHNYGSFAYWGQGTLVTVSA
VL: ELVMTQTPATLSVTPGDSVSLSCRASQSISNHLHWYQQKSHESPRLLIKYASQSISGIPSRFSGSGSGTDFTLSINSVETEDFGMYFCQQSNSWPHTFGGGTKLEIKRA
On to B1, for which the “effect on CAM angiogenesis induced by PMA (angiogenesis index)” value in experiment [5] is recorded as “failed to do so”. Also, the “effect on CAM angiogenesis in response to TNF-α (angiogenesis index)” value in experiment [6] is listed as “blocked angiogenesis”. In addition, the “effect on CAM angiogenesis induced by TGF-α (angiogenesis index)” value in experiment [7] is “failed to do so”. Also, in experiment [8], the “inhibition of CS-1 tumor growth” value is given as “also inhibited tumor growth, however, less effective than that with P1F6”.
